In US20180291083A1 (IMMATICS BIOTECHNOLOGIES, published 2018):

molecular target: T1, HLA-A*03:01 (human); assay: UV ligand exchange ELISA; exchange yield grade
T1 construct: Peptide-receptive MHC class I monomer made by UV cleavage of a UV-sensitive ligand
Description: (§1) Candidate peptides for T cell based therapies according to the present invention were further tested for their MHC binding capacity (affinity). The individual peptide-MHC complexes were produced by UV-ligand exchange, where a UV-sensitive peptide is cleaved upon UV-irradiation, and exchanged with the peptide of interest as analyzed. Only peptide candidates that can effectively bind and stabilize the peptide-receptive MHC molecules prevent dissociation of the MHC complexes. To determine the yield of the exchange reaction, an ELISA was performed based on the detection of the light chain (β2m) of stabilized MHC complexes. The assay was performed as generally described in Rodenko et al. (Rodenko et al., 2006).
(§2) 96 well MAXISorp plates (NUNC) were coated over night with 2 ug/ml streptavidin in PBS at room temperature, washed 4× and blocked for 1 h at 37° C. in 2% BSA containing blocking buffer. Refolded HLA-A*02:01/MLA-001 monomers served as standards, covering the range of 15-500 ng/ml. Peptide-MHC monomers of the UV-exchange reaction were diluted 100-fold in blocking buffer. Samples were incubated for 1 h at 37° C., washed four times, incubated with 2 ug/ml HRP conjugated anti-β2m for 1 h at 37° C., washed again and detected with TMB solution that is stopped with […]. Absorption was measured at 450 nm. Candidate peptides that show a high exchange yield (preferably higher than 50%, most preferred higher than 75%) are generally preferred for a generation and production of antibodies or fragments thereof, and/or T cell receptors or fragments thereof, as they show sufficient avidity to the MHC molecules and prevent dissociation of the MHC complexes.

peptide exchange yield [%] | Binder
20 to 50 | KLMETSMGF
20 to 50 | SVSSSTHFTR
10 to 20 | RSKEYIRKK
50 to 75 | KAKKPAGAAK
20 to 50 | RTYGFVLTF
50 to 75 | SVYSETSNMDK
20 to 50 | KVYDPVSEY

More lines, now with the values behind:

Binder | peptide exchange yield [%]
KAKAAAKPK | 20 to 50
KARKSAGAAK | 50 to 75
SVAHLLSKY | 20 to 50
ATKSPAKPK | 50 to 75
SVFEGDSIVLK | 20 to 50
KTSNIVKIK | 20 to 50
VILESIFLK | 20 to 50
RIYDEILQSK | 20 to 50

molecular target: T2, HLA-B*07:02 (human); assay: UV ligand exchange ELISA; exchange yield grade
T2 construct: Peptide-receptive MHC class I monomer made by UV cleavage of a UV-sensitive ligand
Description: as §1, §2

peptide exchange yield [%] | Binder
50 to 75 | NPRYPNYMF
20 to 50 | APSKTSLIM
50 to 75 | MPSSDTTVTF
50 to 75 | SPRVYWLGL
20 to 50 | VPNLQTVSV
50 to 75 | APRPAGSYL
20 to 50 | SPWLHAPSL
20 to 50 | LPYDSKHQI
20 to 50 | LPLSMEAKI
50 to 75 | FPAPILRAV
20 to 50 | KAKKPAGAA
50 to 75 | NPLTKLLAI
50 to 75 | QPRLFTMDL
50 to 75 | KARKSAGAA
20 to 50 | LPKVQSIQL
50 to 75 | SPSLPNITL
20 to 50 | MPLSTIREV
20 to 50 | KAFKWFSAL
> 75 | SPRITFPSL
50 to 75 | RPMTPTQIGPSL

The next lines start with the binder.

Binder | peptide exchange yield [%]
IPASHPVL | 20 to 50
SPFSFHHVL | 20 to 50
SPLSHHSQL | 20 to 50
YPGSDRIML | 20 to 50
APINKAGSFL | > 75
SPSLPSRTL | 20 to 50
FPETVNNLL | 20 to 50
RPFADLLGTAF | 50 to 75
SPKESENAL | 20 to 50
KPKKAPKSPA | 50 to 75
SPADHRGYASL | 20 to 50
KPKAAKPKAA | 20 to 50
KPKAAKPKTA | 20 to 50
MPDPHLYHQM | 20 to 50
APAPAEKTPV | 50 to 75
KPKAAKPKA | 20 to 50

Binder | peptide exchange yield [%]
SPLGSLARSSL | > 75
IPANTEKASF | 20 to 50
SPRNLQPQRAAL | 50 to 75
LPARFYQAL | > 75
SPRSWIQVQI | 50 to 75
KPMKSVLVV | 50 to 75
QPSPARAPAEL | 20 to 50
KPKAAKPKKAAA | 20 to 50
LPFGKIPIL | 20 to 50
RPSNKAPLL | 50 to 75
RPHIPISKL | 20 to 50
YPYQERVFL | 20 to 50
YLNRHLHTW | 20 to 50
SPRAINNLVL | > 75
YPIALTRAEM | 50 to 75
